Experimental findings from paper PMC9400301 are described below.

Read-outs that look alike come from different tables or passages of the source.

In test [1] the target is Tva fused with HA tag and the human IgG-Fc fragment (pCAGGS-Tva-HA-Fc).
Test [2] has the same target. The experiment in a line: co-IP with grey value analysis. The note with it: parent: est. 1.0; read off a plot.
The target is the same in test [3]. This is another data set of the same source.
Test [4] shares this target. This is another data set of the same source.

The substance ALV-A gp85 G324P (domain or fragment) displayed a competitive blocking test: percent GFP-positive DF-1 cells after incubation with the concentrated soluble gp85 and infection with RCASBP(A)-EGFP in test [1] of 5.5%. As for ALV-A gp85 I326T (domain or fragment), the competitive blocking test: percent GFP-positive DF-1 cells after incubation with the concentrated soluble gp85 and infection with RCASBP(A)-EGFP in test [1] came to 4.5%.

Turning to “ALV-A gp85 wt (soluble gp85 of ALV-A RSA, pCAGGS-s-gp85-flag) 328_329insP”, in test [2], the ratio to parent was determined as 0.71.

On to “ALV-A gp85 wt (soluble gp85 of ALV-A RSA, pCAGGS-s-gp85-flag) A270del”, for which the ratio to parent in test [2] stood at 0.93. For the substance “ALV-A gp85 wt (soluble gp85 of ALV-A RSA, pCAGGS-s-gp85-flag) N269del”, the ratio to parent in test [2] was determined as 0.91. Turning to “recombinant ALV-A gp85 R274V (domain or fragment)”, the competitive blocking test: percent GFP-positive DF-1 cells after incubation with the concentrated soluble gp85 and infection with RCASBP(A)-EGFP in test [3] was determined as 9.5%. As to “soluble recombinant ALV-A gp85 328_329insP (domain or fragment)”, in test [1], the competitive blocking test: percent GFP-positive DF-1 cells after incubation with the concentrated soluble gp85 and infection with RCASBP(A)-EGFP was 12.5%. With “soluble recombinant chimeric protein gp85 s8 (ALV-A gp85 with segment s8, residues 269-275, replaced by that of ALV-K) (domain or fragment)”, in test [4], the competitive blocking test: percent GFP-positive DF-1 cells after incubation with the concentrated soluble gp85 and infection with RCASBP(A)-EGFP is 11%.
